According to the supplement of paper PMC9732359:
± gives the uncertainty stated by the source.

Assay: protein stability index of a GFP-peptide fusion (yeast GPS) (PSI 1-4); higher = more stable; sorted into four equal gates, so the index is relative within each strain
How it was run: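 Tiled 17-residue peptides from yeast proteins were fused downstream of GFP on a plasmid that also expresses Cherry, and the pooled library was carried in yeast. Mid-log cultures grown in leucine-free medium were sorted into four equal gates by GFP/Cherry fluorescence ratio. Plasmids from each gate were PCR-amplified and Illumina-sequenced, and reads were assigned to strains by barcodes. Each peptide's protein stability index is the sum, over gates, of the gate's read frequency multiplied by its gate number.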

Row | Sequence | protein stability index (doa10∆) | protein stability index (pdr5∆) | protein stability index (san1∆) | protein stability index (ubr1∆)
1 | EITAKEVYDFTHAVGNN [FAS1] | 3 ± 0.065 | 3.15 ± 0.051 | 2.92 ± 0.046 | 3.08 ± 0.039
2 | LIKERQEMERKLEKKRN [ESC2] |  |  | 3.1 ± 0.15 | 
3 | LAKSKASLTAARTAANS [RPN6] | 2.5 ± 0.18 | 2.69 ± 0.12 | 2.83 ± 0.097 | 2.7 ± 0.051
4 | DPKFRRNHKHALHGTAK [RPL29] | 2.34 ± 0.025 | 2.602 ± 0.022 | 2.478 ± 0.024 | 2.636 ± 0.019
5 | GSHLFSIHAHGSTDVGY [PUP1] | 2.58 ± 0.078 | 3.01 ± 0.15 | 2.92 ± 0.077 | 2.02 ± 0.081
6 | SAGNDKMVKAWNLNQFQ [ASC1] | 2.46 ± 0.044 | 2.38 ± 0.054 | 2.15 ± 0.065 | 2.36 ± 0.041
7 | PSTRCKLKLLRMERIKD [RPT2] | 1.6 ± 0.045 | 1.68 ± 0.056 | 1.88 ± 0.089 | 1.76 ± 0.064
8 | VKADVEKSLLPKIETNV [ISW2] | 3.03 ± 0.086 | 3.18 ± 0.074 | 3.11 ± 0.062 | 2.92 ± 0.088
9 | ERFTKSKTLSLIQSYSL [FAS1] | 2.29 ± 0.063 | 2.06 ± 0.043 | 1.93 ± 0.11 | 2.06 ± 0.039
10 | SNNSTTNTFGSNSAGTS [YJL041W/NSP1] | 3.08 ± 0.18 | 3.2 ± 0.14 |  | 3.05 ± 0.18
11 | PVVRAPTVKYNRKVRAG [RPL13A] | 1.22 ± 0.1 | 2.15 ± 0.14 | 1.98 ± 0.18 | 1.49 ± 0.11
12 | NSILSVRDPWSIDFRTY [SRB2] | 2.71 ± 0.1 | 2.68 ± 0.14 | 2.48 ± 0.22 | 2.98 ± 0.1
13 | EMNLHVPQTEEARAEAI [RPO31] | 3.09 ± 0.1 | 3.08 ± 0.085 | 3.05 ± 0.08 | 3.12 ± 0.045
14 | NEAALVVNITHHELVPK [RPB5] | 2.93 ± 0.09 | 2.71 ± 0.06 | 3.14 ± 0.062 | 2.88 ± 0.081
15 | YLSGAIPNQEVLQYSDW [YDL116W/NUP84] | 2.37 ± 0.12 | 1.83 ± 0.074 | 2.29 ± 0.051 | 2 ± 0.071
16 | IGIDEGSDEAYVKDARK [RPC40] | 3.48 ± 0.074 | 3.38 ± 0.076 | 3.19 ± 0.051 | 3.5 ± 0.054
17 | KMVGLRGFNNQIMQLKK [SNF2] | 3.35 ± 0.063 | 3.21 ± 0.073 | 3.04 ± 0.068 | 3.35 ± 0.041
18 | VFSHAQTAVTCESCSTI [RPS27A] | 1.47 ± 0.091 | 1.2 ± 0.076 | 1.16 ± 0.13 | 1.51 ± 0.076
19 | IKTFYWLEQFLSCVKND [NUT1] | 1.31 ± 0.052 | 1.26 ± 0.038 | 1.18 ± 0.061 | 1.13 ± 0.035
20 | KSSIEKDPSPEILVLYN [SIN4] | 2.91 ± 0.05 | 2.9 ± 0.055 | 2.91 ± 0.045 | 2.82 ± 0.043
21 | DLLVIDSHKRIPDMSKN [SNU114] | 2.99 ± 0.073 | 3.09 ± 0.073 | 2.93 ± 0.053 | 3.24 ± 0.056
22 | VNEMNDQLAQELKDLET [NNF1] | 2.9 ± 0.23 |  | 3.27 ± 0.12 | 
23 | KLKQQSSTDIPSYTHVL [RRI1] | 2.29 ± 0.034 | 2.48 ± 0.04 | 2.52 ± 0.045 | 2.49 ± 0.035
24 | MHKQLAYILAAQKTSFE [RPN1] | 2.37 ± 0.056 | 2.46 ± 0.064 | 2.29 ± 0.067 | 2.43 ± 0.063
25 | LRKIDMLQKKLVEVEDE [SRB7] | 3.06 ± 0.13 | 3.45 ± 0.11 | 3.42 ± 0.18 | 3.36 ± 0.1
26 | EWHSSLTLKEAELLVLK [PUP2] |  | 2.47 ± 0.27 |  | 1.63 ± 0.25
27 | SCQIAQPYEDRPFEGLF [RRP45] | 3.33 ± 0.24 | 3.26 ± 0.095 | 3.15 ± 0.086 | 

Row | Sequence | protein stability index (doa10∆) | protein stability index (pdr5∆) | protein stability index (san1∆) | protein stability index (ubr1∆)
28 | HWLQLAKGVYRPNGRKD [POP1] | 2.68 ± 0.06 | 3.12 ± 0.049 | 3.2 ± 0.034 | 3.15 ± 0.049
29 | PSPYKTTVYRYSAAKKI [YAR002W/NUP60] | 1.69 ± 0.051 | 1.98 ± 0.05 | 1.49 ± 0.069 | 1.67 ± 0.042
30 | NANDETTAVEDEDDDLD [RPB4] | 3.47 ± 0.1 | 3.13 ± 0.1 | 3.25 ± 0.093 | 3.25 ± 0.092
31 | SFILSSLEDPQVRKKQI [YDL116W/NUP84] | 1.94 ± 0.11 | 2.09 ± 0.079 | 2.44 ± 0.098 | 3 ± 0.1
32 | LTQEELERIVQIMQNPT [RPS18A] | 2.64 ± 0.099 | 3.08 ± 0.11 | 2.93 ± 0.064 | 2.75 ± 0.12
33 | KQQGVGLPTDAYVAIEQ [RPN8] | 2.78 ± 0.083 | 2.7 ± 0.15 | 2.89 ± 0.21 | 3.19 ± 0.1
34 | EKIAAGYMQKPVYATIG [PRP28] | 2.87 ± 0.19 | 2.67 ± 0.076 | 2.67 ± 0.15 | 2.67 ± 0.094
35 | KAKFTSLAVRSLQDRSS [YCS4] | 2.15 ± 0.042 | 2.3 ± 0.05 | 2.13 ± 0.054 | 2.24 ± 0.036
36 | EVRGQVPVIESAGFETD [SNU114] | 1.37 ± 0.052 | 1.59 ± 0.06 | 1.49 ± 0.15 | 1.86 ± 0.057
37 | PSNFEINAEEIVDFTLP [PRP8] | 2.91 ± 0.083 | 3.18 ± 0.082 | 3 ± 0.064 | 3.02 ± 0.049
38 | SVWKPIAAIIGRLNTLV [IRR1] | 1.68 ± 0.03 | 1.56 ± 0.026 | 2.04 ± 0.058 | 1.63 ± 0.024
39 | SKPAFSFGAKSDEKKDG [YJL041W/NSP1] | 3.25 ± 0.17 | 2.97 ± 0.13 | 3.25 ± 0.12 | 
40 | RMPMDFKGVIVKIVDKD [PRE1] | 2.25 ± 0.17 | 3.11 ± 0.18 | 3.19 ± 0.22 | 2.37 ± 0.056
41 | DAIIPFAAIPEQGIELE [FAS2] | 3.12 ± 0.15 | 2.84 ± 0.2 | 3.42 ± 0.084 | 3.41 ± 0.1
42 | AAKEGLALSSNISRDFQ [COR1] | 2.71 ± 0.089 | 3.08 ± 0.071 | 3.13 ± 0.079 | 2.76 ± 0.096
43 | NIERKQTRKEYNTSILE [SIN4] | 3.11 ± 0.13 | 2.94 ± 0.062 | 3.05 ± 0.081 | 3.23 ± 0.082
44 | GKTNIALLTVLKALSHH [BRR2] | 2.19 ± 0.058 | 1.54 ± 0.05 | 2.14 ± 0.069 | 2 ± 0.057
45 | ELTKTKSSLYSAQDLLD [YIL149C/MLP2] | 2.67 ± 0.05 | 2.84 ± 0.05 | 2.6 ± 0.07 | 2.83 ± 0.029
46 | PTVSLTINLDRFMKGRR [RPC82] | 2.38 ± 0.083 | 2.48 ± 0.06 | 2.62 ± 0.062 | 2.63 ± 0.081
47 | INYAFSMDEEFKNMDCI [SIR3] | 3.21 ± 0.051 | 3.22 ± 0.042 | 3.26 ± 0.033 | 3.321 ± 0.031
48 | VTQQKRSLDENRLEIKY [SMC1] | 2.06 ± 0.064 | 2.15 ± 0.096 | 2.12 ± 0.16 | 2.08 ± 0.062
49 | VDEELGPSIYKTDPAGY [SCL1] | 3.12 ± 0.084 | 3.35 ± 0.074 | 3.29 ± 0.072 | 3.27 ± 0.083
50 | KLIAAAEDGSRSTKDMI [SNF6] | 3.54 ± 0.15 | 3.69 ± 0.23 | 3.44 ± 0.14 | 3.54 ± 0.087
51 | TLLKKANRDDVKGRENE [RPC82] |  | 3.5 ± 0.23 |  | 3.15 ± 0.17
52 | AIAGNSTTNSDVSLLLQ [RGR1] | 3.09 ± 0.13 | 2.19 ± 0.082 | 3.03 ± 0.056 | 3.13 ± 0.071
53 | PIDIFQIIRRVKEMEPK [SIR3] | 3.1 ± 0.13 | 3.22 ± 0.18 |  | 2.94 ± 0.29
